Test results: a protein production outcome set (Wang et al. 2014)

Test: label from the status in PepcDB records

Row | Sequence | protein production
1 | WPIWTRRSDGTLSFANAAYARATDASDAADAIGRNLELLDSGDRAALARALGDGYEYSGRLPIVVGGERRYYDVRALKVSGGSAGIAVDATETAALGAALERMADAHRRTLDQLSSGVAVFDAQRRLSFYNDSYRKLWDL | failed
2 | MKLEAEAVAPSNIAIVKYWGKRDRELNLPLNSSLSISLDSLWVRSRVIFDESLDKDEVIINGKRLSENEVREYAGRVLRRFRDLYGKELFARVESTTNFPSSAGLASSAAGIAALTYASNAALGLGLSNRELSKIARVGSGSACRSMFGGFVKWNRGELESGDDSFCEEIFPPDHWPDLVDIIPIFGEEKKKVSSRTGMENTATSSALMRCRLQFIEETFNEVIDAIRTKNAGKFFQLTMRHSNSMHAVILDSWPPMNYLNEKSFRVMEWVVEFGKAAYTFDAGPNPHIFVLEKDVDEVLKFLNEIGSTKTIVSRVGKGPYLI | failed
3 | MKIDLIISADDIKEEKVKNKTAVVIDMLRATSVITTALNNGCKRVVPVLTVEEALKKVKEYGKDAILGGERKGLKIEGFDFSNSPMEYTEDVVKGKTLIMTTTNGTRAIKGSETARDILIGSVLNGEAVAEKIVELNNDVVIVNAGTYGEFSIDDFICSGYIINCVMDRMKKLELTDAATTAQYVYKTNEDIKGFVKYAKHYKRIMELGLKKDFEYCCKKDIVKLVPQYTNGEIL | not failed
4 | MTGEGRYEEVEAEARTLAALPRRPWRRRPPHWEARVLATGAAVMHGRMAEALDELDTLIAELEPVGLNSQMLRLIARSNRVVALSGLRRYAEAETVANGVLRELNQIAHRAPVSGLETNTLRHLATVLCGLARHEEAEAVVRGNLSRANGPAAGVLHTTLAQSLNGQGRYEEALAEVRRSPPRPPRYAAGHPDLVAAEALYGLGRRAEAEDAVRRSLADCERWLHPAHPRTGEARALLARVTGPKPGEESRGEPGE | failed
5 | MSTNQEKLFGRLLLKNDILQLIKNTDKISVSKIFSNFLLETKVNPILGMTSISSNKIKCNRCGTVHIKNSVKLPIGVFYCPSCIQLGRVRSDDFLYFLPQKNFPKKSYINWSGKLTENQKSISNALCQEINSHQQIIVQAVTGAGKTEMIYQVIEQILESGGVVGLASPRIDVCLELHQRLSRDFSCKIPLLYHDGDSYFRAPLIIMTSHQLLRFKEAFDLLIIDEVDAFPFRDNEMLYVAAEKARKIEGNLIYLTATSTDKLEKDIKKQKLYPLFLPRRFHNFPLVVPKFFWKNKFDKKLIEQRNSGFPLLIFAAEIEFGQEFAKQLQLKFPKEKIASVASTTKDRLEIVKAFRNKEITILIATSILERGVTFPNVDVFVINSEHPNFTKSALIQMAGRVGRSPERPTGLVSFFHYGKSKAMCQAVREIKKMNQLGCFS | failed
6 | MTQIIKIDPLNPEIDKIKIAADVIRNGGTVAFPTETVYGLGANAFDGNACLKIFQAKNRPVDNPLIVHIADFNQLFEVAKDIPDKVLEIAQIVWPGPLTFVLKKTERVPKEVTAGLDTVAVRMPAHPIALQLIRESGVPIAAPSANLATRPSPTKAEDVIVDLNGRVDVIIDGGHTFFGVESTIINVTVEPPVLLRPGPFTIEELKKLFGEIVIPEFAQGKKEAEIALAPGMKYKHYAPNTRLLLVENRNIFKDVVSLLSKKYKVALLIPKELSKEFEGLQQIILGSDENLYEVARNLFDSFRELDKLNVDLGIMIGFPERGIGFAIMNRARKASGFSIIKAISDVYKYVNI | not failed
7 | MLKVLIQTLILGVLLGASAARAELPADYKVVLLTENFPPFNMAVDDKNFARDDGIDGISADIVREMFRRAGIGYSLSLRFPWDRLYRLTLDKPGYGLFSMTYTPERVPQFKWVGPLADTSWVLLAPAGSKIAVKNLKDAARYKLGAYKNDAVSQHLEAQGIPVINALRDQENVKKLTGGQIDLWATTDPVGRYLAKQEGVSGLQTVLRFNEAKLYLALNKDTPDEVVERLQKALEQMRQEGFVDEAVANYL | failed
8 | MLSLLISVKKLFSSFLGILKKEDTRALFFLLATTLLSGTIFYSTVEKLSPLDSLYLSFMTLTTIGYGDVHPVTDLGKIFTMIYATVGLGIMAMFISVVAKSYLYSKQSHHHHHHKNKEHSAEKSSEK | failed
9 | MADVGSLGTRLLRIVLGLCALVLVLLALYVSLGRQLVPLVAEYRQQLEDEAGKQLGIPVRIAELTGSWRGFEPLVVARDIQVGDGEQSLRLARVRLAPDLLGSLLARQVRIGSLELEGLKLTLREGEDGQWSLDGLPHSDKPSDPRKLLQFLLQTQRISLLDSQLEVAPRGSAALSLSAVGATLRSSSVGGQSLDARLQLPDGQPLALHAEGRIDSEDWPRSSARFYLSLPQSDWAQWLPAGLTQEWTIVRAKAGGDFWFDWRDGKAQRLVARLLAPQLKASYAARKPVEINDLGMNLFFDREAQGWKVRVGDLAANFGEQRWGEVELLLRRDQQNNEPHWKLQADRVDLTPLVPAIEALAPLPDAAAEWVAGLKPKGILHNLNADFWPQREVPERVSYATNLEKVGISAFHEVPAVENVSGTLTGTLAGGQLDASAQDFMLHLAKVFPEPWRYREARTRMFWSLDDRAFTLGSHLMRVEGEEGSLAGDMLIRLMRDPGAEDYMDLQVGLSDGDARFTAKYLPTQLPGMNKSLANWLKTAIRSGHVEQGYFQWQGSLNRGAAAEAHVMNLYFKVRDGELAYQPGWPALSKTVGEVFVEDSGVRVLASSGNLLNSRVSDVKVDIPLGRPGQTPHLYVDGAVDSNLKDGIKLLQEAPIPTRKIFAGWEGDGPLQGHLTLDIPLDHDEAGKTGVVVDFSTVGATLKMPSPKLDMSEVKGDFRFDLAKGLSAPAVQARVLGSEVRGRIVAEGRGDARTRLLLNGQVAVKSLSDWLGAGQRPLPVSGRLPFQLNLLLDGKDSQLQIDSDLKGAVVDLPAPFGKTAAQARPTQWRMTLDGAERRYWARYDGLASLAYAAPADKPLNGRGALRLGGDPALLPSAQGLRVRGRLAELDWDAWQATLKRYGNGDQAASSAAGLLRGADLRIDSFKGFGQELKNLTVDLARQERAWQLVLVSDLASGRLVLPDARGAPIVVDLDRLNLPKSTLPDENKVEDSDPLAAVDPRSLPAVDVKIGQVALGGQPLGAWSLKVRPGSNGVAFNDLDLDLRGLHVNGSLRWDGSPGNTRSTYQGRIEGKNLADVLKAWNFAPSATSERFRMDINGQWPGSPAYMALKRFSGSMDASLRKGQFVEVEGSAQALRVFGLLNFNAINRRLRLDFSDILGKGLSYDRVKGVLSATDGVYVTREPLKLEGPSSNLELNGTLDLAHDRIDAKLLVTLPLTNNLTLAALIVGGPAVGGAVFVVDKLLGDRVSRFASVQYSVKGPWQDPKISFDKPFEKPR | failed
10 | MKILYIVLDGAADSPTSPRKTLEEASKPNIDSLGSHAVCGMVYTVKPGVAPQSDYATLSLLGYNPDEYYPGRGPLEAFGAGIEMRRGDIALRANFATVDPGTLRIIDRRVGRSLTSREARELASAVDGMELEDGEGTALFRATIGHRGVLVLRHRSKPLSDAISNTDPAYERRGRFSVALEKYEPFIKLSNPLVEDEAAVLAARMLNEFTLKAVEILDSHPVNLAREKRGLLKANAILSRDAGGLPEEKPPSFQERFGLRGASIVEMVVERGISRYIGLDDIRVEIEGRAREEVYREEAARAVEALETHDLVYVHLKGPDEPGHDGSFEGKIRAVEDIDKHFFAPLLDRLSSAGLEPAFVVTSDHATPWDVGAHSGDPVPLMISHQSIQGSIGKFSETVCLRGRLGTIIGGYRIIPKTLSLLAG | not failed
11 | MMLDALQANGLMQILLLTLMAGLAMPVGAALASVERIHPRWLETEVRHSVIAFGGGALLAAVALVLVPEGTANLPMVGIVVCFAGGGISFMLLDRWLAANGTPASQLVAMLSDFVPEAMALGATFSVSSEGGILLAGIIALQNIPEGFNSYRELVDATHYRGLKIVGALALMALLGPVAGALGYFLLSDAPSVVSGIMLFAAGGILYIIFQDIAPQVRLKKHWAPPLGALAGFLLGVMGEVALSG | failed
12 | MGYQLSATLKGHDQDVRDVVAVDDSKVASVSRDGTVRLWSKDDQWLGTVVYTGQGFLNSVCYDSEKELLLFGGKDTMINGVPLFATSGEDPLYTLIGHQGNVCSLSFQDGVVISGSWDKTAKVWKEGSLVYNLQAHNASVWDAKVVSFSENKFLTASADKTIKLWQNDKVIKTFSGIHNDVVRHLAVVDDGHFISCSNDGLIKLVDMHTGDVLRTYEGHESFVYCIKLLPNGDIVSCGEDRTVRIWSKENGSLKQVITLPAISIWSVDCMSNGDIIVGSSDNLVRIFSQEKSRWASEDEINELSTQVEKSTISSKTIEFDESKLSPYEILQSPGRKEGQIVVVKSPQGTIEAHQFSNSSWKKVGDVVGAGATGNDKKIEFEGKTYDYVFDVDIEDGKPPLKLPINVSDNPYTAADNFLARYELPMSYRDQVVQFILKNTNGISLDQPNDNASSSAVSPSKTSVMKVLPVKQYLIMENYNPDTIFNGIVKINSNEKTFDDEILAQIGGALHDIDESWELLLSFANTIRSNWEIKTPAYDIVRLIVKKLPYSSDIKDYIEEGLGNKNITLTMLTVRILVNCFNNENWGVKLLESNQVYKSIFETIDTEFSQASAKQSQNLAIAVSTLIFNYSALVTKGNSDLELLPIVADAINTKYGPLEEYQECEEAAYRLTVAYGNLATVEPTLRQFANSVTWLANIKRSYGNVPRFKDIFDDLS | failed
13 | MRVDLNSDLGESFGRYKLGLDEEVMKYITSANVACGWHAGDPLVMRKTVRLAKENDVQVGAHPGYPDLMGFGRRYMKLTPEEARNYILYQVGALYAFAKAEGLELQHVKPHGALYNAMVKEEDLARAVIEGILDFDKDLILVTLSNSRVADIAEEMGLKVAHEVFADRAYNPDGTLVPRGRPGAVIEDKEEIAERVISMVKDGGIRAINGEWVDLKVDTICVHGDNPKAVEITSYIRKVLEEEGVKIVPMKEFIR | not failed
14 | MSKRMRPSWYRDSPPKQLPYAFVPEEDDDVVILPQVDNSALLGRLQLSLVGRMFHQGGRSTEALLSFLPNIWDVEGRVRGVSLGDSRFQFFFESETDLQKVLNKRPCHFSKWSFALERWKSHIGISFPDTMTFWIKTEGIPTEFWEEEVLRNFGASIGAVRRVDSSKGRLQISVKADVPFRFNKNAQLPNGEVVKVKLFYEKLF | failed
